Substitutions are numbered along the chain they refer to. Numbers in names are those of the source. Like-named read-outs stand apart in the source and are kept apart here.
B1: Bacillus subtilis GpsB T75D, full length (natural protein, B. subtilis, UniProt P0CI74 1-98, looked up)
chain: MLADKVKLSAKEILEKEFKTGVRGYKQEDVDKFLDMIIKDYETFHQEIEELQQENLQLKKQLEEASKKQPVQSNDTNFDILKRLSNLEKHVFGSKLYD
B2: Bacillus subtilis GpsB T75E, full length (natural protein, B. subtilis, UniProt P0CI74 1-98, looked up)
chain: B1 chain with D75E
B3: Listeria monocytogenes GpsB, full-length wild type (natural protein, L. monocytogenes, UniProt Q8Y614 1-113, looked up)
chain: MTSEQFEYHLTGKEILEKEFKTGLRGYSPEDVDEFLDMVIKDYSTFTQEIEALQAENIRLVQELDNAPLRTSTQPAPTFQAAAQPAGTTNFDILKRLSNLEKHVFGNKLDDNE
B4: Listeria monocytogenes GpsB F91A, full length (natural protein, L. monocytogenes, UniProt Q8Y614 1-113, looked up)
chain: B3 chain with F91A
B5: Listeria monocytogenes GpsB F91A F105A double mutant, full length (natural protein, L. monocytogenes, UniProt Q8Y614 1-113, looked up)
chain: B3 chain with F91A, F105A

Assays:
SEC [1] = target: the molecule itself; assay: SEC
SEC-MALS [2] = target: the molecule itself; assay: SEC-MALS
SEC [3] = target: the molecule itself; assay: SEC; remark: listed apart in the source
SEC-MALS [4] = target: the molecule itself; assay: SEC-MALS; remark: listed apart in the source

Protein | binding result (SEC [1]) | stoichiometry N (SEC-MALS [2]) | also measured
B1 | binds |  | 
B2 | binds |  | 
B3 |  | 6 | 
B4 |  |  | binding result (SEC [3]): binds
B5 |  | 2 | stoichiometry N (SEC-MALS [4]): 3

Reference: PMC5111876 (Microbial Drug Resistance, 2016)
